# Assay results taken from paper PMC8329861, “Structure of the unique tetrameric STENOFOLIA homeodomain bound with target promoter DNA”.
# Residue numbers refer to the chain shown, from its start.
# B1: MtLOB39 22 bp FAM (dsDNA)
# DNA 1: GCAAATTAATGATTTATTCAAG
# DNA 2: CTTGAATAAATCATTAATTTGC
# B2: MtAS2 22 bp FAM (dsDNA)
# DNA 1: TGGATTTAATAATGAAGTGACA
# DNA 2: TGTCACTTCATTATTAAATCCA
# B3: MtAS2 22 bp biotin (dsDNA)
# DNA 1: TGGATTTAATAATGAAGTGACA
# DNA 2: TGTCACTTCATTATTAAATCCA
# B4: TAAT probe (TAAT motifs) (dsDNA)
# DNA 1: GCAAATTAATTATTTATTAAAG
# DNA 2: CTTTAATAAATAATTAATTTGC
# B5: MtLOB39 22 bp (crystal) (dsDNA)
# DNA 1: GCAAATTAATGATTTATTCAAG
# DNA 2: CTTGAATAAATCATTAATTTGC
# Experiments:
# STF-HD WT [1] = molecular target: T1, STF-HD WT (Medicago truncatula, UniProt G0ZGT3 85-190); experiment: EMSA (agarose); stable complex at 1:4 DNA:protein; PAGE EMSA: 10 mM Tris-HCl pH 7.5, 100 mM KCl, 1 mM DTT, 2.5% glycerol, 5 ng/ul poly(dI-dC), 0.05% NP-40, 0.05 ug/ul protein, 5 fmol/ul DNA, room temperature 30; conditions: protein: recombinant; tags: 6xHis-MBP removed by TEV; chain copies: 4; label: 5' 6-FAM; blunt
# T1 sequence: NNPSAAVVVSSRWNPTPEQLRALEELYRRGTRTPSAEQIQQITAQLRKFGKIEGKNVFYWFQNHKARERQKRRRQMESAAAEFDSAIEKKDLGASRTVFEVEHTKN
# STF-HD F167A/I171A = molecular target: T2, STF-HD F167A/I171A (Medicago truncatula, UniProt G0ZGT3 85-190, F167A;I171A); experiment: fluorescence polarization; no significant decrease vs WT; value only in figure; PAGE EMSA: 10 mM Tris-HCl pH 7.5, 100 mM KCl, 1 mM DTT, 2.5% glycerol, 5 ng/ul poly(dI-dC), 0.05% NP-40, 0.05 ug/ul protein, 5 fmol/ul DNA, room temperature 30; conditions: protein: recombinant; tags: 6xHis-MBP removed by TEV; label: 5' 6-FAM; blunt
# T2 sequence: T1 sequence with F83A, I87A
# STF-HD S169E = molecular target: T3, STF-HD S169E (Medicago truncatula, UniProt G0ZGT3 85-190, S169E); experiment: as above; conditions: protein: recombinant; tags: 6xHis-MBP removed by TEV; label: 5' 6-FAM; blunt
# T3 sequence: T1 sequence with S85E
# His-MBP-STF85-190 R96A = molecular target: T4, His-MBP-STF85-190 R96A (Medicago truncatula, UniProt G0ZGT3 85-190, R96A); experiment: EMSA; PAGE EMSA: 10 mM Tris-HCl pH 7.5, 100 mM KCl, 1 mM DTT, 2.5% glycerol, 5 ng/ul poly(dI-dC), 0.05% NP-40, 0.05 ug/ul protein, 5 fmol/ul DNA, room temperature 30; conditions: protein: recombinant; tags: N-terminal 6xHis-MBP; label: 3' biotin; blunt
# T4 sequence: T1 sequence with R12A
# His-MBP-STF85-190 R113Q = molecular target: T5, His-MBP-STF85-190 R113Q (Medicago truncatula, UniProt G0ZGT3 85-190, R113Q); experiment: EMSA; not affected; PAGE EMSA: 10 mM Tris-HCl pH 7.5, 100 mM KCl, 1 mM DTT, 2.5% glycerol, 5 ng/ul poly(dI-dC), 0.05% NP-40, 0.05 ug/ul protein, 5 fmol/ul DNA, room temperature 30; conditions: protein: recombinant; tags: N-terminal 6xHis-MBP; label: 3' biotin; blunt
# T5 sequence: T1 sequence with R29Q
# His-MBP-STF85-190 R151A = molecular target: T6, His-MBP-STF85-190 R151A (Medicago truncatula, UniProt G0ZGT3 85-190, R151A); experiment: EMSA; binding retained; PAGE EMSA: 10 mM Tris-HCl pH 7.5, 100 mM KCl, 1 mM DTT, 2.5% glycerol, 5 ng/ul poly(dI-dC), 0.05% NP-40, 0.05 ug/ul protein, 5 fmol/ul DNA, room temperature 30; conditions: protein: recombinant; tags: N-terminal 6xHis-MBP; label: 3' biotin; blunt
# T6 sequence: T1 sequence with R67A
# STF-HD WT [2] = molecular target: T1, STF-HD WT; experiment: X-ray crystallography (2.1 A); PAGE EMSA: 10 mM Tris-HCl pH 7.5, 100 mM KCl, 1 mM DTT, 2.5% glycerol, 5 ng/ul poly(dI-dC), 0.05% NP-40, 0.05 ug/ul protein, 5 fmol/ul DNA, room temperature 30; conditions: protein: recombinant; tags: 6xHis-MBP removed by TEV; chain copies: 4; blunt
# [3] = molecular target: T7, STF-HD L107M/L110M/L130M (STF_3M-HD) (Medicago truncatula, UniProt G0ZGT3 85-190, L107M;L110M;L130M); experiment: X-ray crystallography (SAD); SeMet protein; PAGE EMSA: 10 mM Tris-HCl pH 7.5, 100 mM KCl, 1 mM DTT, 2.5% glycerol, 5 ng/ul poly(dI-dC), 0.05% NP-40, 0.05 ug/ul protein, 5 fmol/ul DNA, room temperature 30; conditions: protein: recombinant, tags: 6xHis-MBP removed by TEV, chain copies: 4, blunt
# T7 sequence: T1 sequence with L23M, L26M, L46M
binder,measurement,setting,value
B1,binding result,STF-HD WT [1],binds
same,binding result,STF-HD F167A/I171A,binds
same,binding result,STF-HD S169E,binds
B2,binding result,STF-HD WT [1],binds
B3,binding result,His-MBP-STF85-190 R96A,no binding
same,binding result,His-MBP-STF85-190 R113Q,binds
B4,binding result,His-MBP-STF85-190 R151A,binds
B5,binding result,STF-HD WT [2],binds
same,binding result,[3],binds
